In patent US20060099684A1:

Molecular target: activated type I collagenase
Assay: cell-based or functional assay

T2N (three N-terminal disulfide-bonded loops of human TIMP-2, C-terminal His-tag, expressed in Pichia pastoris) (from UniProt P16035 27-153)
IC50 of inhibition of MMP activity (quantitative radiometric 14C-collagen film assay): 7.5 nM
